These results are taken from US7449316B2, “UDP-galactose: β-D-galactose-R 4-α-D-galactosyltransferase, α4Gal-T1” (Glycozym APS, priority 2000, dated 2008).

One data set addresses T1, α4Gal-T1 (Homo sapiens, UniProt Q9NPC4).
T1 construct: The full coding constructs were assayed with 1% Triton X-100 homogenates of cells; made in house; host or cells: insect cells (High Five), baculovirus vector pVL1393
T1 sequence (Q9NPC4 1-353): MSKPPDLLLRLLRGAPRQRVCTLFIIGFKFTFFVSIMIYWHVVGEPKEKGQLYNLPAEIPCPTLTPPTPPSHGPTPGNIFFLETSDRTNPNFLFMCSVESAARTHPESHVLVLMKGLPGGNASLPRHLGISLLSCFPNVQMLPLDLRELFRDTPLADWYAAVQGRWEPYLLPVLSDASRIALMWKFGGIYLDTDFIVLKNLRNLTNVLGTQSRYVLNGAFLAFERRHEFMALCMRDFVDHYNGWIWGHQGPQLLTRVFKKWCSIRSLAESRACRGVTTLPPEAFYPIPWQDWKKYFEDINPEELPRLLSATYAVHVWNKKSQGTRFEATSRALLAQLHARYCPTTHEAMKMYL
The data set can be described thus: Saccharide acceptor substrates tested with α4Gal-T1. As to conditions: saccharide acceptors, α4Gal-T1 expressed in insect cells. It counts as biochemical. Here is the method: (§1) Full coding constructs were prepared by genomic PCR using primer pair HCRS131 (5′-[…]) (SEQ ID NO:7) and HCRS125 (5′-[…]) (SEQ ID NO:8) and genomic DNA from phenotyped individuals with phenotypes P1+ (#165) and p (#4) (see Table II for sequence). Three different full coding constructs were selected for expression: #67 (A109, T548, G903, G987), #45 (G109, T548, G903, A987), and p#5 (A109, A548, G903, G987). The products were cloned into BamHI and EcoRI sites of pBluescript KS+, and subsequently into the insect cell expression vector pVL1393 (Pharmingen), and sequenced in full. A truncated, secreted construct (amino acid residues 46-353) was prepared using primer pair HCRS124 (5′-[…]) (SEQ ID NO:9) and HCRS125 from a P1+ phenotype individual (#165), and the sequence confirmed as described above. The products were cloned into the expression vector pAcGP67A (Pharmingen). The variants of plasmids pVL-α4Gal-T1-full and pAcGP67-α4Gal-T1-sol were co-transfected with Baculo-Gold™ DNA (Pharmingen), and virus amplified as described previously (Bennett et al., 1996). Standard assays were performed in 50 μl reaction mixtures containing 25 mM Cacodylate (pH 6.5), 10 mM MnCl2, 0.25% Triton X-100, 100 μM UDP-[^14C]Gal (10,000 cpm/nmol) (Amersham), and the indicated concentrations of acceptor substrates (Sigma and Dextra Laboratories Ltd) (see Table I for structures). The full coding constructs were assayed with 1% Triton X-100 homogenates of cells twice washed in phosphate buffered saline or resuspended microsomal fractions.

For the next data set, the system named is Namalwa cells. The data set can be described thus: Cell surface P^k/CD77 antigen expression after transient transfection, FACS analysis. The data set is classed as cell-based, human. The conditions noted are these: transient transfection of Namalwa cells, 48 hours, 1A4 monoclonal antibody. Here is the method:
FIG. 7 illustrates cell surface expression of P^k/CD77 antigen in Namalwa cells after transient transfection of α4Gal-T1. Constructs p#5, #45, and #67, as well as empty pDR2 vector were electroporated in Namalwa cells and expression of P^k/CD77 antigen was tested after 48 hours. Cells were labeled with 1A4 monoclonal antibody and GAM-FITC (grey histograms) or with GAM-FITC alone (empty histograms) and analysed with a FACSCalibur flow cytometer.
The three full coding constructs #67, #45, and p#5, were cloned into pDR2 (Clontech, USA). Insert was excised from pBKs with BamHI/XhoI and inserted into the BamHI/SalI sites of pDR2. Transient transfection of 5×10^6 Namalwa cells with 20 μg cDNA was done by double-pulse electroporation using an Easy-cell ject+ (Eurogentec, France). Expression of CD77/P^k antigen was evaluated by FACS analysis on a FACSCalibur (Beckton-Dickinson, USA) using 1A4 monoclonal antibody (Wiels, 1997).
On the technique in general: A flow cytometer gives signals particle by particle.

Data set [1] can be described thus: P^k assay: galactosyltransferase activity with CDH, α4Gal-T1 constructs expressed in insect cells. It counts as biochemical. The conditions noted are these: full coding constructs in insect (High Five) cells, microsomal fractions, 25 μg CDH, UDP-[14C]Gal, 4 hr, compared to uninfected cells or control construct. Here is the method:
(§2) FIG. 4 illustrates expression of full coding Expression of full coding α4Gal-T1 variants in High Five cells. Assays were performed with microsomal fractions, and controls included constructs encoding polypeptide GalNAc-T3 and -T4 (Bennett et al., 1998), as well as a β3GlcNAc-T (Amado et al., 1999). Autoradiography of high performance thin-layer chromatography of reaction products (4 hr) purified by SepPack C-18 columns. Panel A: P^k assay using 25 μg CDH as substrate. Plate was run in chloroform-methanol-water (60/35/8 v/v/v). […] Panel B: P1 assay using 20 μg PG as substrate. Plate was run in chloroform-methanol-water (60/40/10 v/v/v). No specific product was formed with UDP-Gal donor substrate, whereas the β3GlcNAc-T transferred GlcNAc into PG with UDP-GlcNAc.
as §1

Data set [2] is described as follows: P1 assay: α4Gal-T activity with paragloboside (PG) acceptor. The data set is classed as biochemical. As to conditions: full coding constructs in insect cells, 20 μg PG, UDP-Gal donor. Here is the method:
as §2
Full coding constructs were prepared by genomic PCR using primer pair HCRS131 (5′-[…]) (SEQ ID NO:7) and HCRS125 (5′-[…]) (SEQ ID NO:8) and genomic DNA from phenotyped individuals with phenotypes P1+ (#165) and p (#4) (see Table II for sequence). Three different full coding constructs were selected for expression: #67 (A109, T548, G903, G987), #45 (G109, T548, G903, A987), and p#5 (A109, A548, G903, G987). The products were cloned into BamHI and EcoRI sites of pBluescript KS+, and subsequently into the insect cell expression vector pVL1393 (Pharmingen), and sequenced in full. […]

Substitutions are numbered along the chain they refer to.

Turning to `OC[C@H]1O[C@@H](O[C@H]2[C@H](O)[C@@H](O)[C@H](OCc3ccccc3)O[C@@H]2CO)[C@H](O)[C@@H](O)[C@H]1O` [benzyl β-lacto-side], the “acceptor activity over background” value on α4Gal-T1 is “no significant activity over background values”.
As for `N[C@H]1C(O)O[C@H](CO)[C@@H](O[C@@H]2O[C@H](CO)[C@H](O)[C@H](O)[C@H]2O)[C@@H]1O` (stereo partly drawn) [lactosamine], at α4Gal-T1, the “acceptor activity over background” value is on record as “no significant activity over background values”.
On the same count and under the same terms, next, `OC[C@H]1O[C@@H](O[C@H]2[C@H](O)[C@@H](O)C(O)O[C@@H]2CO)[C@H](O)[C@@H](O)[C@H]1O` (stereo partly drawn) [lactose]: “no significant activity over background values”.

B1: α4Gal-T1^37V: full coding human α4Gal-T1 variant, construct #45 (G109, T548, G903, A987), Val at residue 37 (protein, UniProt Q9NPC4 1-353, looked up)
chain: T1 sequence (Q9NPC4 1-353)
modifications: full-length
For B1, the “P^k/CD77 expression” value with Namalwa cells is on record as “clearly resulted in P^k/CD77 expression”. Also, the “galactosyltransferase (α4Gal-T) activity with CDH” value was “marked increase in galactosyltransferase activity” in data set [1] and “resulted in α4Gal-T activity toward CDH” in data set [1] (listed as #45). The “α4Gal-T activity with neolacto-series (paragloboside) glycolipid acceptor (P1 synthase activity)” value in data set [2] was “neither α4Gal-T1^37M or α4Gal-T1^37V constructs conferred α4Gal-T activity”.

B2: α4Gal-T1^183K: full coding α4Gal-T1 from p individuals, construct p#5 (A109, A548, G903, G987), Met183 to Lys (protein, UniProt Q9NPC4 1-353, looked up, variant M183K)
chain: T1 sequence (Q9NPC4 1-353) with M183K
modifications: full-length
notes: full coding α4Gal-T1 from p individuals, construct p#5 (A109, A548, G903, G987), Met183 to Lys
Regarding B2, the “galactosyltransferase (α4Gal-T) activity with CDH” value in data set [1] is recorded as “no activity”; in data set [1] (listed as #5), “no activity above background”.
